In the assay the target is Nsp5 (SARS-CoV-2) (UniProt P0DTD1). As to the kind of experiment: fluorescence polarisation. (In general: Polarisation of emitted light reports the rotation of a fluorescent probe.)

B1: DLG3_(577–592) (peptide)
peptide: TVKFHARTGMIESNR
As for B1, the Kd (usually the constant that tells how readily two partners part at equilibrium) came out at 7 µM.

B2: SHROOM2_(403–417) (peptide)
peptide: GASSRLQASLSSSDV
In turn, B2 gave a Kd of 280 µM.

The values above are taken from PMC10499821.
